Results published in article PMC4259493.
Read-outs that look alike come from different tables or passages of the source.

Legend:
Test in all cases: MST
[1] = biological target: α-actinin-2 wild-type, full length (human) (UniProt P35609)
[2] = biological target: α-actinin-2 calmodulin-like domain (CAMD, EF1-4) (human)
[3] = biological target: α-actinin-2 wild-type, full length (human) (UniProt P35609); remark: listed apart in the source

Chain of α-actinin-2 wild-type, full length (human) (P35609 whole entry, the tested form may be a part): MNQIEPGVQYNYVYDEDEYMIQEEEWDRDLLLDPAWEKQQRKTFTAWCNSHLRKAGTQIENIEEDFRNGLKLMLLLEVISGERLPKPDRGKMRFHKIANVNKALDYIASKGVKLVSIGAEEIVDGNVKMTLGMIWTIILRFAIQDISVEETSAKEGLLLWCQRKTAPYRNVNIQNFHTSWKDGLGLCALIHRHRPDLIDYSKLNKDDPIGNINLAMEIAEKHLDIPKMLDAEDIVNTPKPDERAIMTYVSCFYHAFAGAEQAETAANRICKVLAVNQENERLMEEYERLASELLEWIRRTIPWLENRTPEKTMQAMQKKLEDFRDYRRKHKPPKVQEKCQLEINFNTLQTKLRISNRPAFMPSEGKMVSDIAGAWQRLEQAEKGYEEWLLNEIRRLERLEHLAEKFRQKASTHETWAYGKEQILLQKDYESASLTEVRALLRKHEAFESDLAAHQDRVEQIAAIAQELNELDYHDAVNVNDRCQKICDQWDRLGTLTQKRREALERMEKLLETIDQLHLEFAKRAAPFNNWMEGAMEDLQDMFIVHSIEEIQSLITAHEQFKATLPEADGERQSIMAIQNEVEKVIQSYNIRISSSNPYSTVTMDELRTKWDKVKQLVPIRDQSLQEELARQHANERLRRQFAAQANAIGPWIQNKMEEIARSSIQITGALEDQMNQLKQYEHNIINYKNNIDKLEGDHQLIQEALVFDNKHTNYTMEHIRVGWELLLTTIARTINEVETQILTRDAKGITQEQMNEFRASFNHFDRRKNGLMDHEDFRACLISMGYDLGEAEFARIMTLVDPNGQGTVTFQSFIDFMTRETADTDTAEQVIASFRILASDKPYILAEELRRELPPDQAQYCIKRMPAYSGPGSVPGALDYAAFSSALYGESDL
Chain of α-actinin-2 calmodulin-like domain (CAMD, EF1-4) (human) (P35609 whole entry, the tested form may be a part): as above
Chain of titin Zr-7 construct (amino acids Lys 692 - Arg 740) (Q8WZ42 692-740): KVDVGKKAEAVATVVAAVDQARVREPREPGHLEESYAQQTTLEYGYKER

- Kd [1]: 2.9 µM
- Kd [2]: 0.24 µM
- Kd [3]: 0.38 µM
Substance: titin Zr-7 construct (amino acids Lys 692 - Arg 740) (from UniProt Q8WZ42 692-740) (domain or fragment)
